Experiments:
CXCR4-mCherry [1] = target: T1, CXCR4-mCherry; experiment: live-cell confocal colocalisation, HEK293T cells co-expressing CXCR4-mCherry and DR5-GFP
T1 construct: Co-expressed with DR5-GFP on transfected HEK293T cells; also called exogenous CXCR4; CXCR4 fused with an mCherry tag at the C-terminal
Method: (§1) HEK293T cells were seeded at a density of 5×10⁵ cells/well into a 4-well chamber 35 mm culture dish (purchased from In Vitro Scientific) and cultured at 37° C., 5% CO₂ until the cell density reached approximately 60-70% confluence. Then, plasmids pCDNA3.1-CXCR4-mCherry and pCDNA3.1-DR5-GFP were gently pipetted and mixed with Opti-MEM Medium (purchased from Invitrogen. Inc.) without antibiotics and serum in a sterile centrifuge tube, in an amount of 0.5 μg pCDNA3.1-CXCR4-mCherry and 0.5 μg pCDNA3.1-DR5-GFP per well. Lipo8000™ transfection reagent (purchased from Shanghai Bio-Tech Biotechnology Co., Ltd.) was added and gently pipetted and mixed again to obtain a plasmid solution for transfection (i.e., each 100 μl Opti-MEM Medium contained 0.5 μg of plasmids pCDNA3.1-CXCR4-mCherry and pCDNA3.1-DR5-GFP, and 1.6 μl Lipo8000). The evenly mixed plasmid solution was added dropwise to each well, gently mixed, and then cultured for 24-36 hours at 37° C., and 5% CO₂ to obtain HEK293T cells co-expressing CXCR4-mCherry and DR5-GFP.
(§2) 200 nM CN-P2S2-DN protein or its different truncated variants P2S2-CN, P2S2. P2S2-DN (all labeled with fluorescent dye Alexa 647) were added to the above cell culture medium. HEK293T cells treated in the same manner with blank solution under the same conditions were used as negative controls. […]

DR5-GFP [2] = target: T2, DR5-GFP; experiment: as above
T2 construct: Co-expressed with CXCR4-mCherry on transfected HEK293T cells; also called exogenous DR5; DR5 fused with a GFP tag at the C-terminal
Method: as §1, §2

CXCR4-mCherry [3] = target: T1, CXCR4-mCherry; experiment: time-lapse confocal imaging, HEK293T cells co-expressing CXCR4-mCherry and DR5-GFP, 200 nM
DR5-GFP [4] = target: T2, DR5-GFP; experiment: as above
[5] = target: endogenous DR5 receptor on human tumor cells (human, UniProt O14763 56-440); experiment: cell-based or functional assay
[6] = target: T3, endogenous CXCR4 receptor on human tumor cells (human, UniProt P61073 1-352); experiment: FRAP and confocal imaging on SJSA-1 cells, 200 nM
T3 construct: whole, on cells; also called CXC motif chemokine receptor 4
T3 sequence (P61073 whole entry): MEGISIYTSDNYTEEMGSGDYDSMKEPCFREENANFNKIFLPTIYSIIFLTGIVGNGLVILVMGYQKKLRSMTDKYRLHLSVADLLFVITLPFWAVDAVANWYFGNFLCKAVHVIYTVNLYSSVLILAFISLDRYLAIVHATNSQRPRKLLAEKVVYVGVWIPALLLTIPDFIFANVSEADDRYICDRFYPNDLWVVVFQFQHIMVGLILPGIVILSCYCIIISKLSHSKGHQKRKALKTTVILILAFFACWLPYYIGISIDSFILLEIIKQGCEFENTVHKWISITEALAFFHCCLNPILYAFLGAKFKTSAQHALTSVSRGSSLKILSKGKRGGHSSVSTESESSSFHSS
Method: Fluorescence recovery after photobleaching (FRAP) is an experiment commonly used to verify liquid-liquid phase separation, see, for example, Alberti, Simon et al., Journal of Molecular Biology 430(23): 4806-4820, 2018: McSwiggen, David T et al., Genes & Development 33(23-24): 1619-1634, 2019. Therefore, FRAP was performed on the same droplets as in Example 4 that contain 12.5 μM CN-P2S2-DN protein. After bleaching with 488 nm laser light at a laser intensity of 50% for 1 second, fluorescence images were taken under a NIKON A1R HD25 laser confocal microscope (purchased from Nikon, Inc.) with a 100× oil immersion objective lens. The images were analyzed and exported using NIS-Elements AR Analysis (Nikon, Inc.) and Image J (National Institutes of Health) software.
SJSA-1 cells were treated with 200 nM CN-P2S2-DN (labeled with Alexa 561) for 4 hrs in the same manner as in Example 5, and photobleaching analysis was performed.

T1 sequence (chain, as listed by the source limits assumed): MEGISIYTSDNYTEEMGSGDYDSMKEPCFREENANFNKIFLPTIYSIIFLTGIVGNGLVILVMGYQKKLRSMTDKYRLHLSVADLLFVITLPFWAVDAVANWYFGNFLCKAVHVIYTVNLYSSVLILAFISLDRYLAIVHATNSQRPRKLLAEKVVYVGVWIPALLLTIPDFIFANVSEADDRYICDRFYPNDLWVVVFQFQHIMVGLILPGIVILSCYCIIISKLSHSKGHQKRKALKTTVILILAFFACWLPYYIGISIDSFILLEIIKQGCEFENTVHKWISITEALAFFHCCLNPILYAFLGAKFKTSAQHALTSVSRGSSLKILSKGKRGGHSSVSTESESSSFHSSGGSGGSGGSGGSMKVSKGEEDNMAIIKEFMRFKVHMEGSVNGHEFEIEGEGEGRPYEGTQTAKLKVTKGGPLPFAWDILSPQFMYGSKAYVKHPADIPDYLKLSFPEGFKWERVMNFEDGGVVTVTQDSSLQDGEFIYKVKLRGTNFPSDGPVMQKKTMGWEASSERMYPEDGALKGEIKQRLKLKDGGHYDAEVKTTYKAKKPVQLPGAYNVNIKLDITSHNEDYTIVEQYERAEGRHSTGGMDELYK

Binder	binding result (CXCR4-mCherry [1])	binding result (DR5-GFP [2])	binding result (CXCR4-mCherry [3])	binding result (DR5-GFP [4])	IC50 of apoptosis induction in CXCR4/DR5 COLO-205 cells (Annexin V-FITC/PI flow cytometry) [5]	IC50 of apoptosis induction in CXCR4/DR5 SJSA-1 cells (Annexin V-FITC/PI flow cytometry) [5]	apoptosis ratio in other CXCR4+/DR5+ double-positive tumor cell lines, 200 nM, 5 hr [5]	apoptosis ratio, COLO-205 cells, 100 nM, 3 hr [5]	apoptosis ratio, SJSA-1 tumor cells, 100 nM, 3 hr [5]	binding result [6]
truncated variant P2S2 (other, fluorescent dye label by Alexa Fluor C5 maleimide; labelled residue not stated) MKGGSWGGSKKTPPPVPPRTTSKGGSGGSGGSGGSKKTPPPVPPRTTSKGGSGGSGGSGGSDLNMPAYVKFNYMAEREDELSLIKGTKVIVMEKSSDGWWRGSYNGQVGWFPSNYVTEEGDSPLASGAGGSEGGGSEGGTSGATDLNMPAYVKFNYMAEREDELSLIKGTKVIVMEKSSDGWWRGSYNGQVGWFPSNYVTEEGDSPLG	no binding (tested: 200 nM)	no binding (tested: 200 nM)								
recombinant protein CN-P2S2-DN (designed binder, fluorescent dye label by Alexa Fluor C5 maleimide (Alexa 647, Alexa 561 or Alexa 546 in the imaging experiments); labelled residue not stated, MBP removed by TEV protease; Unlabelled, endotoxin-free protein was used in the apoptosis assays; also called synthetic ligand CN-P2S2-DN; recombinant ligand CN-P2S2-DN) EVQLMESGGGLVQAGGSLRLSCAASGRTFNNYAMGWFRRAPKGEREFVAAITRSGVRSGVSAIYGDSVKDRFTISRDNAKNTLYLQMNSLKPEDTAVYTCAASAIGSGALRRFEYDYSGQGTQVTVSSGGSGGSGGSGGSASMKGGSWGGSKKTPPPVPPRTTSKGGSGGSGGSGGSKKTPPPVPPRTTSKGGSGGSGGSGGSDLNMPAYVKFNYMAEREDELSLIKGTKVIVMEKSSDGWWRGSYNGQVGWFPSNYVTEEGDSPLASGAGGSEGGGSEGGTSGATDLNMPAYVKFNYMAEREDELSLIKGTKVIVMEKSSDGWWRGSYNGQVGWFPSNYVTEEGDSPLGSMGMGEVQLLESGGGLVQPGGSLRLSCAASGTFDKINNMGWYRQAPGKQRDLVAQITPGGITDYADSVKGRFTISRDNSKNTLYLQMNSLRPEDTAVYYCNAEILKRAYIDVYVNYWGQGTLVTVSS			binds	binds	28.9 nM	10.1 nM	> 40%	74%	82.5%	binds

Source: patent publication US20260022151A1 (TSINGHUA UNIVERSITY, published 2026)
